Experimental data from patent publication US20140154241A1 (CYCLOGENIX, published 2014).
Numbering of substitutions follows the chain as printed. Each block holds one binder with its values, some of them ahead of it.

Molecular target: T1, human serum albumin (HSA) (human, UniProt P02768 25-609)
T1 construct: Coated on ELISA plates or immunotubes; also called HuSA
Experiment: phage ELISA on coated HSA

T1 sequence (P02768 25-609 limits assumed): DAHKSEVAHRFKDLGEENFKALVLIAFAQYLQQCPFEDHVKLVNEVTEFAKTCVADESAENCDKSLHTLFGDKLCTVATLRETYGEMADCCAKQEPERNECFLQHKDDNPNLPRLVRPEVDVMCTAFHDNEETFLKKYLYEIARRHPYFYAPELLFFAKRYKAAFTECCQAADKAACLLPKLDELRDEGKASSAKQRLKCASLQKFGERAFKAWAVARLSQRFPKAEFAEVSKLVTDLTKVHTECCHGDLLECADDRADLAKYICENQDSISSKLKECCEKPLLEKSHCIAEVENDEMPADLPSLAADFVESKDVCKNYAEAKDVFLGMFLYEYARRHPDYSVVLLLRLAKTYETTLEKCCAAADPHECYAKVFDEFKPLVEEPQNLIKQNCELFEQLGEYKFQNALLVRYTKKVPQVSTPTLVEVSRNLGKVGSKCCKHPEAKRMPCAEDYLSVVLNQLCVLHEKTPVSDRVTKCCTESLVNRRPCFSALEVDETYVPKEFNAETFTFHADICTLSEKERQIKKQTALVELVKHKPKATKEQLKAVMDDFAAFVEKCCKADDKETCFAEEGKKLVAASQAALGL

binding result: binds
B1: modified igNAR peptide clone B10 (VNAR)
VNAR: RVDQTPRIATKETGESLTINCVLRDTACALDSTNWYRTKLGSTKEQTISIGGRYSETADEGSNPASLTIRDLRVEDSGTYKCKAAITPFDNWYECLGTRAEGAGTVLTVK

binding result: binds
B2: representative full igNAR clone of SEQ ID NO: 8 (VNAR)
VNAR: B1 VNAR with A58V, P64S
